# B1: CH236 (antibody, V domains shown)
# VH: QVQLVQSGAAVKRPGASVTISCRASGYTFTTYYIHWVRQAPGQRLELMGMIDPSRGRTDYAQKFQGRVTMSRDTSTSTLYMELRSLRPDDTALYYCVRNVGTEGSLLHYDYWGQGTLVTVSS
# VL: EIVLTQSPATLSVSPGERVTLSCRASQSVRNNLAWYRQKRGQAPRLLIYGASTRATGIPARFSGSGSGTEFTLTISSMQSEDFAVYYCQQYNNWWTFGQGTKVEIK
# B2: CH493 (antibody, V domains shown)
# VH: QVRLLQYGGGVKRPGASMTISCVASGYNFNDYYIHWVRQAPGQGLELMGWIDPSGGRTDYAGAFGDRVSMYRDKSMNTLYMDLRSLRSGDTAMYYCVRNVGTAGSLLHYDHWGLGVMVTVSS
# VL: B1 VL
# B3: CH235.9 Fab (Fab, V domains shown)
# VH: B2 VH
# VL: B1 VL
# B4: CH491 (antibody, V domains shown)
# VH: QVQLVQSGAAVKRPGASVTISCRASGYTFTTYYIHWVRQAPGQGLELMGWINPRGGRTDYSYRFEDRVSMYRDTSMSIVYMDLRNLKSADTAVYYCVRNVGTSGSLLHYDFWGQGSLVTVSS
# VL: B1 VL
# B5: CH235.12 Fab (Fab, V domains shown)
# VH: QVRLAQYGGGVKRLGATMTLSCVASGYTFNDYYIHWVRQAPGQGFELLGYIDPANGRPDYAGALRERLSFYRDKSMETLYMDLRSLRYDDTAMYYCVRNVGTAGSLLHYDHWGSGSPVIVSS
# VL: EIVLTQSPATLSASPGERVTLTCRASRSVRNNVAWYQHKGGQSPRLLIYDASTRAAGVPARFSGSASGTEFTLAISNLESEDFTVYFCLQYNNWWTFGQGTRVDIK
# B6: CH235 (antibody, V domains shown)
# VH: QVQLVQSGAEVKKPGASVTVSCQASGYTFTNYYVHWVRQAPGQGLQLMGWIDPSWGRTNYAQNFQGRITMTRDTSTSTVYMEMRSLRSEDTAVYYCARNVATEGSLLHYDYWGQGTLVTVSA
# VL: EIVLTQSPATLSVSPGERATLSCRASQSVRSNLAWYQQRPGQAPRLLIYGTSTRATGVPARFSGRGSGTEFTLAISSMQSEDFAVYLCLQYNNWWTFGQGTKVEIK
# B7: CH235 Fab (Fab, V domains shown)
# VH: B6 VH
# VL: B6 VL
# B8: CH492 (antibody, V domains shown)
# VH: QVQLVQSGAAVKKPGASVRVSCKASGYTFTSSHIHWVRQAPGQGPEWMGMVDPRFGRPTYAQKFQGRVAMTRDIYTSTVYMDLRSLKSEDTAIYFCVRNAETEGSLLHIEYWGQGTRVTVSS
# VL: EIVLTQSPATLSVSPGERATLSCRASQSVRSNIAWYQQKPGQAPRLLIHGASTRATGIPGRFSGSGSGPEFTLAISSVQSEDFAVYYCQQYNDWWTFGQGTKVEIK
# B9: CH241 (antibody, V domains shown)
# VH: QVQLVQSGAAVKKPGASVRVSCKASGYTFTSSHIHWVRQAPGQGPEWMGMIDPSVGRPTTAGKFQGRVTMTRDRYTSTAYMDLSSLRSEDTAVYYCARSVETTGSLLYFDYWGQGTLITVSS
# VL: B8 VL
# Experiments:
# AtheNA, Ab 6.25 ug/ml = substrate: SSB (UniProt P05455); test: AtheNA, Ab 6.25 ug/ml
# Chain of SSB (P05455 whole entry): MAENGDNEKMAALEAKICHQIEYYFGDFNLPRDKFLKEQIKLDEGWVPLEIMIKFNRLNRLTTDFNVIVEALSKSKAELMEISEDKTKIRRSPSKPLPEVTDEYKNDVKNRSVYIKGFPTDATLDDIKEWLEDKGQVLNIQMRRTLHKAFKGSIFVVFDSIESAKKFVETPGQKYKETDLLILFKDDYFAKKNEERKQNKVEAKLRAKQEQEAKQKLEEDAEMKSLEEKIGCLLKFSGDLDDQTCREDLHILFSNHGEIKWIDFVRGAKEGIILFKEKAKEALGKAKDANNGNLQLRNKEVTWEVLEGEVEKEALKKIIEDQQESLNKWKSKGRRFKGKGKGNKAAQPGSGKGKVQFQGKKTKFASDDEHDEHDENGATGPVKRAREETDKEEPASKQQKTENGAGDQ
# AtheNA, Ab 25 ug/ml = substrate: SSB (UniProt P05455); test: AtheNA, Ab 25 ug/ml
# Centromere B [1] = molecular target: Centromere B (UniProt P07199); test: AtheNA, Ab 50 ug/ml
# Chain of Centromere B (P07199 whole entry): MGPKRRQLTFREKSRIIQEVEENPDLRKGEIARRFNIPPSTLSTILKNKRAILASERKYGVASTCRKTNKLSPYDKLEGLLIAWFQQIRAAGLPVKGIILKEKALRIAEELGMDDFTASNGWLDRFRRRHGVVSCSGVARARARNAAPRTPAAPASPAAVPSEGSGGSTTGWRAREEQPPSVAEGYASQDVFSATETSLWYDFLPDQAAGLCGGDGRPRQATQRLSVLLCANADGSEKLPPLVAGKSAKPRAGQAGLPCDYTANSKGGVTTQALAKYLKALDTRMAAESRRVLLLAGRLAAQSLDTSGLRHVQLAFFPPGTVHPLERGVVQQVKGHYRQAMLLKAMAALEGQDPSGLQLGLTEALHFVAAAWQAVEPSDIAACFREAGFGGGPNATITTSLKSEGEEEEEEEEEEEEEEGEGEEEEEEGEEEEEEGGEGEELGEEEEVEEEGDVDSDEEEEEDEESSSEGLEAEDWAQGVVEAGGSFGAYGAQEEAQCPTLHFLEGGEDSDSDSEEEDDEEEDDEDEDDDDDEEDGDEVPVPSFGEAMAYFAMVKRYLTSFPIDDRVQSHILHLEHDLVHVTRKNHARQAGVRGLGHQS
# Jo-1 [2] = molecular target: Jo-1 (UniProt P12081); test: AtheNA, Ab 50 ug/ml
# Chain of Jo-1 (P12081 whole entry): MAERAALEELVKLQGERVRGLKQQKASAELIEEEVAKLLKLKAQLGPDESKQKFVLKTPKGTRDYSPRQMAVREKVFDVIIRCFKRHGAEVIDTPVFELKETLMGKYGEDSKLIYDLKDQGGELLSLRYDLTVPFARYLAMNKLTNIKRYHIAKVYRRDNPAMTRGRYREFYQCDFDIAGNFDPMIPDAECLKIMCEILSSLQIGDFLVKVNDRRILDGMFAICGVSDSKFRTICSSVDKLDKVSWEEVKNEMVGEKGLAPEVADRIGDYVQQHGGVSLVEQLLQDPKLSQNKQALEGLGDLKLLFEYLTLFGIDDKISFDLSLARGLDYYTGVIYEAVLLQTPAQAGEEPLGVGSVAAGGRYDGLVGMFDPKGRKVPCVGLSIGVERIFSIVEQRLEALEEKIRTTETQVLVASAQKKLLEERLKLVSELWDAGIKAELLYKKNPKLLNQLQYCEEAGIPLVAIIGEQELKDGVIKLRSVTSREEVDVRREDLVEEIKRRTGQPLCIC
# Centromere B [3] = molecular target: Centromere B (UniProt P07199); test: AtheNA, Ab 25 ug/ml
# Jo-1 [4] = molecular target: Jo-1 (UniProt P12081); test: AtheNA, Ab 25 ug/ml
# AtheNA, Ab 50 ug/ml = substrate: SSB (UniProt P05455); test: AtheNA, Ab 50 ug/ml
# Centromere B [5] = molecular target: Centromere B (UniProt P07199); test: AtheNA, Ab 6.25 ug/ml
# Jo-1 [6] = molecular target: Jo-1 (UniProt P12081); test: AtheNA, Ab 6.25 ug/ml
# Centromere B [7] = molecular target: Centromere B (UniProt P07199); test: AtheNA, Ab 12.5 ug/ml
# Jo-1 [8] = molecular target: Jo-1 (UniProt P12081); test: AtheNA, Ab 12.5 ug/ml
# AtheNA, Ab 12.5 ug/ml = substrate: SSB (UniProt P05455); test: AtheNA, Ab 12.5 ug/ml
# [9] = molecular target: B41 SOSIP.664 gp140 trimer (HIV-1); test: negative stain EM, 10 molar excess of Fab
# [10] = molecular target: BG505 SOSIP.664 gp140 trimer (HIV-1); test: negative stain EM, 10 molar excess of Fab
# Con S gp120 = test: direct-binding ELISA (OD450), panel 'Con S gp120'
# [11] = molecular target: CH505.TF mutant gp120 M6 (HIV-1); test: direct-binding ELISA (OD450), panel 'CH505.TF gp120 M6'
# [12] = molecular target: HIV-1 CH505 transmitted/founder gp120 Env (HIV-1); test: direct-binding ELISA (OD450), panel 'CH505.TF gp120'
# [13] = molecular target: CH505.TF mutant gp120 M8 (HIV-1); test: direct-binding ELISA (OD450), panel 'CH505.TF gp120 M8'
binder,measurement,setting,value
B1,AtheNA signal (relative luminescence units),"AtheNA, Ab 6.25 ug/ml",15
same,AtheNA signal (relative luminescence units),"AtheNA, Ab 25 ug/ml",175
same,AtheNA signal (relative luminescence units),Centromere B [1],84
same,AtheNA signal (relative luminescence units),Jo-1 [2],145
same,AtheNA signal (relative luminescence units),Centromere B [3],129
same,AtheNA signal (relative luminescence units),Jo-1 [4],72
same,AtheNA signal (relative luminescence units),"AtheNA, Ab 50 ug/ml",207
same,AtheNA signal (relative luminescence units),Centromere B [5],208
same,AtheNA signal (relative luminescence units),Jo-1 [6],7
same,AtheNA signal (relative luminescence units),Centromere B [7],233
same,AtheNA signal (relative luminescence units),Jo-1 [8],19
same,AtheNA signal (relative luminescence units),"AtheNA, Ab 12.5 ug/ml",63
B2,AtheNA signal,Centromere B [1],94
same,AtheNA signal,Jo-1 [2],198
same,AtheNA signal,Centromere B [3],129
same,AtheNA signal,Jo-1 [4],167
same,AtheNA signal,Centromere B [5],177
same,AtheNA signal,Jo-1 [6],54
same,AtheNA signal,Centromere B [7],165
same,AtheNA signal,Jo-1 [8],102
B3,stoichiometry (Fabs per trimer) (Fabs per trimer),[9],3
same,stoichiometry (Fabs per trimer) (Fabs per trimer),[10],3
B4,AtheNA signal,"AtheNA, Ab 6.25 ug/ml",42
same,AtheNA signal,"AtheNA, Ab 25 ug/ml",95
same,AtheNA signal,Jo-1 [2],169
same,AtheNA signal,Jo-1 [4],118
same,AtheNA signal,"AtheNA, Ab 50 ug/ml",144
same,AtheNA signal,Jo-1 [6],56
same,AtheNA signal,Jo-1 [8],79
same,AtheNA signal,"AtheNA, Ab 12.5 ug/ml",60
B5,stoichiometry (Fabs per trimer) (Fabs per trimer),[9],3
same,stoichiometry (Fabs per trimer) (Fabs per trimer),[10],3
B6,AtheNA signal (relative luminescence units),Centromere B [3],6
same,AtheNA signal (relative luminescence units),Centromere B [5],3
same,AtheNA signal (relative luminescence units),Centromere B [7],5
B7,stoichiometry (Fabs per trimer) (Fabs per trimer),[9],2
same,stoichiometry (Fabs per trimer) (Fabs per trimer),[10],1
B8,EC50 (read off the curve),Con S gp120,5 µg/mL
same,EC50 (read off the curve),[11],0.5 µg/mL
same,EC50 (read off the curve),[12],0.5 µg/mL
same,EC50 (read off the curve),[13],6 µg/mL
B9,AtheNA signal (relative luminescence units),Centromere B [3],14
same,AtheNA signal (relative luminescence units),Centromere B [5],6
same,AtheNA signal (relative luminescence units),Centromere B [7],8

# — patent publication US10450368
